One molecule from patent US12006519B2, “Polymerase mutants and use with 3′-OH unblocked reversible terminators” (Agilent Technologies, Inc., priority 2021, dated 2024) can be followed below.

Holding throughout (assay type): biochemical
Data set [1] concerns Lightning Terminators. Put plainly: Plate-based assay, incorporation of Lightning Terminators by control extracts. The method, then: (§1) In this example, additional mutant polymerases were derived from Pfu polymerase. To generate the mutants, eighty-seven codons in the Pfu pol B gene were saturated using the QuikChange Lightning Mutagenesis kit and oligonucleotides containing “NDT” codons to create R, N, D, C, G, H, I, L, F, S, Y, and V substitutions with equal frequency. In some cases, mutants missing from NDT libraries were prepared in a separate QuikChange reaction with an equimolar mixture of mutagenic oligos encoding the remaining mutations (A, T, K, Q, E, P, […], W). Thirty-two clones were randomly selected from each QuikChange library (with the exception of T267, Y403, Y410, I475, G499 and K675 libraries which generated fewer transformants). Bacterial lysates were prepared and screened for incorporation of LTA and LTC using a plate-based assay with immobilized primer-templates. A limited number of mutants were also screened for utilization of LTG and LTU (similar trends; data not shown). After washing and UV cleavage (to minimize dye quenching effects), plates were read and fluorescent signals compared to Pfu controls. The following table identifies four mutant Pfu polymerases that served as controls, which were given the arbitrary names Pfu5, Pfu1, and Pfu2, along with Pfu10 (which is discussed above).
Selected lysates, based on screening results, were submitted for sequencing, and an amino acid identification was made based on the selections. […] As shown in Example 3, K477W benefits sequencing by increasing the fraction of full-length reads.

The next data set has as its system LTC. Put plainly: Plate-based assay with immobilized primer-templates, incorporation of LTC. The following applies: FIG. 6. The method, then: as §1
The subject of a further data set is Human DNA library. Put plainly: Sequencing with Lightning Terminators, Human DNA library (120 cycles). The following applies: Human DNA library. The method, then: (§2) This section generally describes how the present mutant polymerases were used for sequencing-by-synthesis, and how their performance in sequencing was measured. Sequencing was performed on a breadboard instrument, essentially as described in Hertzog D, et al., “A high-performance, low-cost approach to next-generation sequencing”, BioOptics World. 2011 Issue November/December 2011.
(§3) In this example, a variety of mutations were introduced into Pfu10 by multi-site mutagenesis or into Pfu A486L/Y546H by domain substitutions to explore an acceptable degree of reduced identity and identify other mutant Pfu polymerases containing L486, F494, H546, and W477. […] Pfu10 and Pfu10-N12 were evaluated for performance in sequencing with Lightning Terminators, as described above.

In data set [2] the test system is Lightning Terminators. Put plainly: Sequencing-by-synthesis with Lightning Terminators (87 cycles). Set-up: ARL (87 cycles) / Lead + Lag / Leading / Lagging: unit not given here. Put shortly:
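Mutant 9°N-family DNA polymerases (Therminator; JDF3 and Pfu carrying D141A/E143A/A485L) run in sequencing-by-synthesis on a breadboard instrument with 3′-OH unblocked Lightning Terminators, 87 cycles. Metrics include Lead+Lag dephasing, i.e. reading next- or previous-base signal from imperfect terminator incorporation.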

The test system of a further data set is dATP. Put plainly: Template-independent DNA synthesis assay with dATP (terminal transferase activity). On the procedure:
The template-independent DNA synthesis reactions employed 7.5 U TdT (Promega) or 180 nM (3×over primer) Pfu26 (D141A/E143A/A486L/Y546H/K477W/L409Y) or Pfu48 (D141A/E143A/A486R/Y546H/K477W/L409Y). Varying concentrations of dATP were added to 2 μM (TdT) or 60 nM (Pfu) T7 FOR primer (6′Fam […]) (SEQ ID NO:6) in duplicate reactions containing 1×TdT buffer with CoCl2(Promega) or 1×ThermoPol buffer (NEB). Reactions were incubated for 30 min. at 37° C. (TdT) or 60° C. (Pfu), and then inactivated with heat (TdT; 10 min. at 70° C.) or EDTA (1 ul 500 uM EDTA). Reaction products were exposed to UV using a Stratalinker (15-watt bulbs, […], 10 min). Reactions were diluted in water (TdT, 1:333; Pfu, 1:10) and 1 μl (TdT) or 0.5 μl (Pfu) aliquots were brought up to 10 μl with HiDI/LIZ 120 Size Standard. Products were heated at 95° C. for 5 min., cooled on ice for 2 min., and then analyzed on an ABI 3500 capillary electrophoresis system ([…] capillary, filter set #5, assay=GE5 LIZ120).
Terminal transferase activity was measured by the number of template-independent dATP additions. Results are shown for TdT in FIG. 9A, for Pfu26 in FIG. 9B and for Pfu48 in FIG. 9C.

Another data set relates to E. coli DNA library. Put plainly: Sequencing with Lightning Terminators, E. coli DNA library (120 cycles). On the procedure:
as §2, §3

B1: Pfu10: Pfu D141A/E143A/K477W/A486L/Y546H, SEQ ID NO:2 (protein)
chain: MILDVDYITEEGKPVIRLFKKENGKFKIEHDRTFRPYIYALLRDDSKIEEVKKITGERHGKIVRIVDVEKVEKKFLGKPITVWKLYLEHPQDVPTIREKVREHPAVVDIFEYDIPFAKRYLIDKGLIPMEGEEELKILAFAIATLYHEGEEFGKGPIIMISYADENEAKVITWKNIDLPYVEVVSSEREMIKRFLRIIREKDPDIIVTYNGDSFDFPYLAKRAEKLGIKLTIGRDGSEPKMQRIGDMTAVEVKGRIHFDLYHVITRTINLPTYTLEAVYEAIFGKPKEKVYADEIAKAWESGENLERVAKYSMEDAKATYELGKEFLPMEIQLSRLVGQPLWDVSRSSTGNLVEWFLLRKAYERNEVAPNKPSEEEYQRRLRESYTGGFVKEPEKGLWENIVYLDFRALYPSIIITHNVSPDTLNLEGCKNYDIAPQVGHKFCKDIPGFIPSLLGHLLEERQKIKTKMKETQDPIEWILLDYRQKLIKLLANSFYGYYGYAKARWYCKECAESVTAWGRKYIELVWKELEEKFGFKVLYIDTDGLHATIPGGESEEIKKKALEFVKYINSKLPGLLELEYEGFYKRGFFVTKKRYAVIDEEGKVITRGLEIVRRDWSEIAKETQARVLETILKHGDVEEAVRIVKEVIQKLANYEIPPEKLAIYEQITRPLHEYKAIGPHVAVAKKLAAKGVKIKPGMVIGYIVLRGDGPISNRAILAEEYDPKKHKYDAEYYIENQVLPAVLRILEGFGYRKEDLRYQKTRQVGLTSWLNIKKS
modifications: Mutant of Pyrococcus furiosus Polymerase
For the molecule B1, the “Effect on LTA and LTU incorporation (in words)” value with Lightning Terminators [1] (K477W, or final fluorescence due to tryptophan quenching) is “negative impact on LTA and LTU incorporation”. Also, in the data set on Lightning Terminators [1] (control extracts, FIG. 6, FIGS. 7A-7B), the “Utilization of Lightning Terminators (in words)” value is “could utilize Lightning Terminators”. For the same molecule, the “Incorporation of LTC (in words)” value in the data set on LTC is “maximize incorporation of LTC”. Also, in the data set with Human DNA library, the “% reads >85” value is 92.0%, the “ARL (120 cycles)” value turned out to be 109.7, the FracQ30 is recorded as 0.65 and the “Lead + Lag” value worked out at 1.1. For the same molecule, the “Sequencing performance with Lightning Terminators (in words)” value in the data set on Lightning Terminators [2] is recorded as “improved sequencing enzyme”. For the same molecule, in the data set with Lightning Terminators [2] (Example 3), the “% reads >85 bp” value is on record as 69.5%, the FracQ30 is 0.62, the Lagging was 0.66 and the Leading is 0.24. The “ARL (87 cycles)” value in the data set with Lightning Terminators [2] (Example 3, Therminator 110 runs, Pfu10 12 runs) came to 80.4. Further, the “Non-templated dA-addition (terminal transferase activity)” value with dATP is “fail to perform non-templated dA-addition”. Further, in the data set on E. coli DNA library, the “% reads >85” value amounted to 79.9%, the “ARL (120 cycles)” value is on record as 92.3, the FracQ30 was 0.63 and the “Lead + Lag” value is on record as 0.8.
